Test results published in patent US20190381183A1 (TEXAS A AND M UNIVERSITY SYSTEM, published 2019).

Experiments:
[1] = target: T1, recombinant human HER2 (extracellular domain)-Fc fusion protein (human, UniProt P04626 23-652); experiment: SPR, antibody injected over immobilized HER2-ECD-Fc, apparent equilibrium dissociation constant, pH 7.0
T1 construct: extracellular domain; Bought reagent; also called HER2-ECD-Fc; HER-extracellular domain (ECD)-Fc fusion; not shown: immunoglobulin Fc fragment of the bought fusion protein

[2] = target: T1, recombinant human HER2 (extracellular …); experiment: SPR, antibody injected over immobilized HER2-ECD-Fc, apparent equilibrium dissociation constant, pH 7.4
[3] = target: T1, recombinant human HER2 (extracellular …); experiment: SPR, antibody injected over immobilized HER2-ECD-Fc, apparent equilibrium dissociation constant, pH 5.8
[4] = target: T1, recombinant human HER2 (extracellular …); experiment: SPR (BIAcore T200), antibody injected over immobilized HER2-ECD-Fc, pH 5.8, apparent KD (FIG. 4B); pH 5.8
[5] = target: T1, recombinant human HER2 (extracellular …); experiment: SPR, antibody injected over immobilized HER2-ECD-Fc, apparent equilibrium dissociation constant, pH 6.5

B1: YS mutant of pertuzumab (Tyr55 to histidine in the light chain variable domain and Ser103 to histidine in the heavy chain variable domain) (antibody, human IgG1, V domains shown)
VH: QVQLQESGGGLVQPGGSLRLSCAASGFTFTDYTMDWVRQAPGKGLEWVADVNPNSGGSIYNQRFKGRFTLSVDRSKNTLYLQMNSLRAEDTAVYYCARNLGPHFYFDYWGQGTLVTVSS
VL: DIELTQSPSSLSASVGDRVTITCKASQDVSIGVAWYQQKPGKAPKLLIYSASYRHTGVPSRFSGSGSGTDFTLTISSLQPEDFATYYCQQYYIYPYTFGQGTKLEIKR
notes: Tested without conjugated drug in the SPR assay; also called YS variant of pertuzumab
- Kd [1]: 22.1 nM
- Kd [2]: 6.3 nM
- Kd [3]: 1630 nM
- Kd [4]: > 1500 nM
- Kd [5]: 67.9 nM
